Source: patent US20060153853A1 (UNIVERSITY OF ADELAIDE, published 2006)
Residue numbers refer to the chain shown, from its start. Names may count otherwise. Values belong to the binder of their own block, whether it stands above or below them.

How the values were obtained:
[1] = target: T1, IGF-II (insulin-like growth factor II) (UniProt P01344 25-91); test: SPR (BIAcore), IGF-II amine-coupled to CM5 chip; ratio against hIGFBP-2
T1 construct: Amine-coupled (70 RU) to a CM-5 biosensor chip
Protocol: (§1) The IGF surface was regenerated with 10 mM HCl.
(§2) Table 3. […] Data was analysed using BIAevaluation software 3.0 and fit to a Langmuir 1:1 binding model. The dissociation constant (KD) was determined from the calculation of kd/kₐ, where kₐ is the association rate and kd is the dissociation rate.

[2] = target: T2, IGF-I (insulin-like growth factor I) (UniProt P05019 49-118); test: SPR (BIAcore), IGF-I amine-coupled to CM5 chip; ratio against hIGFBP-2
T2 construct: Amine-coupled (70 RU) to a CM-5 biosensor chip; also added to HT-29 cells; also called IGF-1
T2 sequence (P05019 49-118 limits assumed): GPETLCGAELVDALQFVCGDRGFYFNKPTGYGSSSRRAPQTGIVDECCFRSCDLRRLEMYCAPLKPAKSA
Protocol: as §1
(§3) The dissociation constant (KD) was determined from the calculation of kd/kₐ, where kₐ is the association rate and kd is the dissociation rate.

[3] = target: T2, IGF-I (insulin-like growth factor I); test: SPR (BIAcore) on immobilised IGF-I; text summing up Table 2
Protocol: as §1, §3

[4] = target: T1, IGF-II (insulin-like growth factor II); test: SPR (BIAcore) on immobilised IGF-II; text summing up Table 3
Protocol: as §1, §2

T1 sequence (P01344 25-91 limits assumed): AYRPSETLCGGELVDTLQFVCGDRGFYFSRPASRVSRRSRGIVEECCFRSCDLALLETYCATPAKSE

Rel. KD (KD of hIGFBP-2/KD of hIGFBP-2 mutant) [1]: 1.27
Rel. KD (KD of hIGFBP-2/KD of hIGFBP-2 mutant) [2]: 1.34
B1: K227AHis hIGFBP-2 (other, human)
chain: EVLFRCPPCTPERLAACGPPPVAPPAAVAAVAGGARMPCAELVREPGCGCCSVCARLEGEACGVYTPRCGQGLRCYPHPGSELPLQALVMGEGTCEKRRDAEYGASPEQVADNGDDHSEGGLVENHVDSTMNMLGGGGSAGRKPLKSGMKELAVFREKVTEQHRQMGKGGKHHLGLEEPKKLRPPPARTPCQQELDQVLERISTMRLPDERGPLEHLYSLHIPNCDAHGLYNLKQCKMSLNGQRGECWCVNPNTGKLIQGAPTIRGDPECHLFYNEQQEARGVHTQRMQHHHHHH
notes: mature

Rel. KD (KD of hIGFBP-2/KD of hIGFBP-2 mutant) [1]: 0.37
Rel. KD (KD of hIGFBP-2/KD of hIGFBP-2 mutant) [2]: 0.64
B2: K234AHis hIGFBP-2 (other, human)
chain: B1 chain with A227K, K234A
notes: mature; also called K234A hIGFBP-2; K234AHis IGFBP-2

Rel. KD (KD of hIGFBP-2/KD of hIGFBP-2 mutant) [1]: 2.9
fold higher affinity than native hIGFBP-2 [3]: ~2 fold
Rel. KD (KD of hIGFBP-2/KD of hIGFBP-2 mutant) [2]: 2.29
fold higher affinity than native hIGFBP-2 [4]: ~2 fold
B3: K237AHis hIGFBP-2 (other, human)
chain: B1 chain with A227K, K237A
notes: mature

Rel. KD (KD of hIGFBP-2/KD of hIGFBP-2 mutant) [1]: 0.68
Rel. KD (KD of hIGFBP-2/KD of hIGFBP-2 mutant) [2]: 0.87
B4: K180A K181AHis hIGFBP-2 (other, human)
chain: B1 chain with K180A, K181A, A227K
notes: mature; also called K180A, K181A mutation
